Laboratory results taken from patent US5474766, “Methods and compositions for inhibition of hepatic clearance of tissue-type plasminogen activator” (Washington University, dated 1995).
Blank lines part the entries; values can stand above or below the molecule they belong to.

Tests used:
[1] = biological target: low density lipoprotein receptor-related protein (LRP) on rat MH1C1 hepatoma cells (rat); experiment: saturation binding to MH1C1 cells pre-incubated with 0.1% saponin, Scatchard; n=3 (ligand label as printed, doubtful)
[2] = biological target: low density lipoprotein receptor-related protein (LRP) on rat MH1C1 hepatoma cells (rat); experiment: saturation binding to MH1C1 cells, Scatchard; simultaneous assays, n=4
[3] = biological target: low density lipoprotein receptor-related protein (LRP) on rat MH1C1 hepatoma cells (rat); experiment: competition of 125I-t-PA binding to MH1C1 cells
[4] = biological target: low density lipoprotein receptor-related protein (LRP) on rat MH1C1 hepatoma cells (rat); experiment: saturation binding to MH1C1 cells, Scatchard; summary of 7 experiments
[5] = biological target: low density lipoprotein receptor-related protein (LRP) on rat MH1C1 hepatoma cells (rat); experiment: competition of 125I-t-PA binding to MH1C1 cells by recombinant rat 39 kDa protein
[6] = biological target: low density lipoprotein receptor-related protein (LRP) on rat MH1C1 hepatoma cells (rat); experiment: competition of 4 nM 125I-t-PA binding to MH1C1 cells, fragment eluted from PVDF
[7] = biological target: low density lipoprotein receptor-related protein (LRP) on rat MH1C1 hepatoma cells (rat); experiment: saturation binding of 125I-ligand to MH1C1 cells at 4 C, Scatchard analysis (one experiment, FIG. 1A)
[8] = biological target: low density lipoprotein receptor-related protein (LRP) on rat MH1C1 hepatoma cells (rat); experiment: competition of 4 nM 125I-t-PA binding to MH1C1 cells, protein eluted from PVDF
[9] = biological target: T1, low density lipoprotein receptor-related protein (LRP) on human hepatoma HepG2 cells (human, UniProt Q07954); experiment: saturation binding to HepG2 cells at 4 C, Scatchard; five experiments
Experimental: (§1) Cells were seeded into multiwell (12 wells/plate) disposable plastic tissue culture plates 2 days prior to assay. Ligand binding buffer for t-PA was composed of phosphate-buffered saline (PBS) supplemented with 0.2 mM CaCl_2 and 10 mM EACA, whereas PBSc (PBS containing 1 mM CaCl_2 and 0.5 mM MgCl_2) was used for 39 kDa protein binding. Binding experiments were performed at 4° C. to prevent possible concomitant internalization during the binding interval. Cell monolayers were washed three times on ice with prechilled binding buffer. Binding was initiated by adding 0.5 ml binding buffer containing selected concentrations of ^125I-labelled ligand in the absence or presence of an excess unlabelled ligand (1 μM). After incubation at 4° C. for 1.5 hours, buffer containing unbound ligand was removed. Cells were then washed three times with binding buffer and lysed in 0.0625M Tris-HCl, pH 6.8, containing 0.2% (w/v) SDS and 10% (v/v) glycerol ("low-SDS lysis buffer"). Radioactivity of cell lysates was quantified by γ scintillation spectrometry. For some experiments, cell lysates were further analyzed by SDS-PAGE and autoradiography as described below. Total binding was determined in the presence of ^125I-labelled ligand alone. Nonspecific binding was determined in the presence of excess unlabelled ligand. Specific ligand binding was defined as the difference between total and nonspecific binding. […]

[10] = biological target: low density lipoprotein receptor-related protein (LRP) on human hepatoma HepG2 cells (human) (UniProt Q07954)
[11] = biological target: low density lipoprotein receptor-related protein (LRP) on rat MH1C1 hepatoma cells (rat); experiment: competition of 3 nM 125I-t-PA binding to MH1C1 cells at 4 C
[12] = biological target: low density lipoprotein receptor-related protein (LRP) on rat MH1C1 hepatoma cells (rat); experiment: saturation binding to MH1C1 cells, Scatchard; summary of 10 experiments
[13] = biological target: low density lipoprotein receptor-related protein (LRP) on rat MH1C1 hepatoma cells (rat)
[14] = biological target: low density lipoprotein receptor-related protein (LRP) on rat MH1C1 hepatoma cells (rat); experiment: saturation binding to untreated MH1C1 cells, Scatchard; n=3
[15] = biological target: low density lipoprotein receptor-related protein (LRP) on human hepatoma HepG2 cells (human) (UniProt Q07954); remark: listed apart in the source
[16] = biological target: T1, low density lipoprotein …; experiment: saturation binding to HepG2 cells at 4 C, Scatchard; one experiment
Experimental: as §1

[17] = biological target: low density lipoprotein receptor-related protein (LRP) on rat MH1C1 hepatoma cells (rat); experiment: competition of 4 nM 125I-t-PA binding to MH1C1 cells; buffer alone exhibited 20-30% inhibition

Kd [1]: 9.1 nM | Kd [2]: 5.6 nM | Ki [3]: 8 nM | Kd [4]: 4.9 nM
Molecule: tissue-type plasminogen activator (t-PA) (from UniProt P00750) (enzyme)

Ki [5]: 0.5 nM
Molecule: rat 39 kDa protein (from UniProt Q99068) (ligand)

IC50 [6]: 4 nM | concentration at 90% inhibition [6]: 16 nM
B1: 28 kDa C-terminal fragment of the 39 kDa protein (ligand)
chain: PRLEKLWHKAKTSGKFSGEELDKLWREFLHHKEKVHEYNVLLETLSRTEEIHENVISPSDLSDIKGSVLHSRHTELKEKLRSINQGLDRLRRVSHQGYSTEAEFEEPRVIDLWDLAQSANLTDKELEAFREELKHFEAKIEKHNHYQKQLEIAHEKLRHAESVGDGERVSRSREKHALLEGRTKELGYTVKKHLQDLSGRISRARHNEL

Kd [7]: 3.2 nM | Kd [2]: 3.5 nM | IC50 [8]: 1 nM | concentration at 90% inhibition [8]: 8 to 10 nM | Kd [9]: 5.1 nM | specific degradation of ^125 I-t-PA by HepG2 cells (TCA-soluble radioactivity) [10]: 75% | IC50 [11]: < 1 nM | Kd [12]: 3.3 nM | rate of ligand uptake and degradation at 37° C. (fmol/10^6 cells/minute) [13]: 52 | Kd [14]: 2.7 nM | specific ^125 I-t-PA uptake by HepG2 cells (cell-associated radioactivity) [15]: 70% | Kd [16]: 4.9 nM
B2: 39 kDa protein (ligand)
chain: YSREKNQPKPSPKRESGEEFRMEKLNQLWEKAQRLHLPPVRLAELHADLKIQERDELAWKKLKLDGLDEDGEKEARLIRNLNVILAKYGLDGKKDARQVTSNSLSGTQEDGLDDPRLEKLWHKAKTSGKFSGEELDKLWREFLHHKEKVHEYNVLLETLSRTEEIHENVISPSDLSDIKGSVLHSRHTELKEKLRSINQGLDRLRRVSHQGYSTEAEFEEPRVIDLWDLAQSANLTDKELEAFREELKHFEAKIEKHNHYQKQLEIAHEKLRHAESVGDGERVSRSREKHALLEGRTKELGYTVKKHLQDLSGRISRARHNEL

percent inhibition at 16 nM [17]: 10%
B3: 20 kDa N-terminal fragment of the 39 kDa protein (ligand)
chain: YSREKNQPKPSPKRESGEEFRMEKLNQLWEKAQRLHLPPVRLAELHADLKIQERDELAWKKLKLDGLDEDGEKEARLIRNLNVILAKYGLDGKKDARQVTSNSLSGTQEDGLDD
